Experimental data taken from patent US20250043005A1 (GENEQUANTUM HEALTHCARE SUZHOU, published 2025).

B1: Ab0033 (antibody, human IgG1, kappa, N297A, V domains shown)
VH: QVQLQESGPGLVKPSETLSLTCTVSGYSITSGYNWHWIRQFPGNGLEWMGYIHHSSITNYNPSLKSRITISRDTSKNQFSLKLSSVTAADTATYYCAREGYDYDWFAYWGQGTLVTVSS
VL: DIVLTQSPDFQSVTPKEKVTITCRASQSISNNLHWYQQKPDESPKLLIKYASQSISGIPSRFSGSGSGTDFTLTINSVEAEDFAMYFCQQSKSWPFTFGQGTRLEIKR
notes: Signal peptides are not part of the purified protein; also called antibody moiety Ab0033; derived from Ab0002 (3F2)
B2: Recombinant hIL21R protein (receptor)
chain: not shown
notes: also called human IL21 receptor; Hu-IL21R

What was measured:
[1] = molecular target: B2; assay: ELISA, recombinant hIL21R coated at 0.5 ug/mL, detection with anti-human-IgG (H+L)-HRP, OD450
Description: (§1) The binding activities of the fusion proteins to human IL21 receptor (hIL21R or Hu-IL21R) were determined using ELISA. Recombinant hIL21R protein were diluted using coating buffer (1×PBS) to 0.5 μg/mL and coated to an ELISA plate at 4° C. overnight. The plate was blocked with 5% slim milk powder in coating buffer at 37° C. for 1 h. […] Finally, 1:5000 diluted anti-human-IgG (H+L)-HRP was added. After an incubation at 37° C. for 1 h, TMB substrate was added for color development. The data was collected using a microplate reader.

[2] = molecular target: T1, His-tagged human PD-L1 (hPD-L1-His) (human, UniProt Q9NZQ7 19-238, limits assumed); assay: SPR (Biacore T200), Ab0033 captured on Protein A chip, hPD-L1-His 100 nM as analyte, 1:1 Langmuir fit
T1 construct: not shown: His tag
T1 sequence (Q9NZQ7 19-238 limits assumed): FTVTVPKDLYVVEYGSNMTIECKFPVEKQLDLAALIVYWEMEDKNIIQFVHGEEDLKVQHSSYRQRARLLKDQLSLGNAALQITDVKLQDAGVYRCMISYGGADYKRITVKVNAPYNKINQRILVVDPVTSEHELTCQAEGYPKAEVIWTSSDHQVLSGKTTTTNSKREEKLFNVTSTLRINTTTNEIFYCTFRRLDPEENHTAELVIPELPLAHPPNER
Description: (§2) The Biacore T200 biosensor is equipped with Sensor Chip Protein A. The proteins (diluted to 1 μg/mL) to be tested were injected at 10 μL/min into the Biacore T200 biosensor for 50 sec, in order to reach the required protein density (about 300 RU). Then His-tagged human IL21R (hIL21R-His, 200 nM) or human PD-L1 (hPD-L1-His, 100 nM) were injected at 30 μL/min into the system for 180 sec. The dissociation was monitored for 600 sec. After each cycle, glycine buffer pH 1.7 (30 μL/min, 30 sec) was used to regenerate the chip.
Data were processed with Biacore T200 evaluation software 3.0. The binding kinetics were analyzed by globally fitting the data with the 1:1 Langmuir binding model to obtain the association rate (kₒₙ) and dissociation rate (koff). The affinity (KD) was calculated using the formula: KD=koff/kₒₙ.

[3] = molecular target: T2, Recombinant hPD-L1 protein (Acrobiosystems, PD1-H5253) (human, UniProt Q9NZQ7 19-238); assay: ELISA, recombinant hPD-L1 coated at 0.5 ug/mL, detection with anti-human-IgG (H+L)-HRP, OD450
T2 construct: also called human PD-L1
T2 sequence (Q9NZQ7 19-238 limits assumed): as above
Description: Recombinant hPD-L1 was diluted in coating buffer (1×PBS) to 0.5 μg/mL and coated to an ELISA plate at 4° C. overnight. The plate was blocked with 5% slim milk powder in coating buffer at 37° C. for 1 h. […] Finally, 1:5000 diluted anti-human-IgG (H+L)-HRP was added. After an incubation at 37° C. for 1 h, TMB substrate was added for color development. The data was collected using a microplate reader.

[4] = molecular target: T3, His-tagged human IL21R (hIL21R-His) (human, UniProt Q9HBE5 20-232, limits assumed); assay: SPR (Biacore T200), Ab0033 captured on Protein A chip, hIL21R-His as analyte
T3 construct: not shown: His tag
Description: as §2

[5] = molecular target: T2, Recombinant hPD-L1 protein …; assay: ELISA, recombinant hPD-L1 (Acrobiosystems PD1-H5253) coated at 0.5 ug/mL, detection with anti-human-IgG (H+L)-HRP, OD450
Description: The binding activities of the fusion proteins to human PD-L1 (hPD-L1) were determined using ELISA. […] The plate was blocked with 5% slim milk powder in the coating buffer at 37° C. for 1 h. […] Finally, 1:5000 diluted anti-human-IgG (H+L)-HRP was added. After an incubation at 37° C. for 1 h, TMB substrate was added for color development. The data was collected using a microplate reader.

LC0030-1 = molecular target: T4, LC0030-1 (Homo sapiens (Human), UniProt P0DOX7 1-214; P0DOX5 2-449 = IgG part); assay: ELISA, recombinant hIL21R coated at 0.5 ug/mL, detection with anti-human-IgG (H+L)-HRP, OD450
T4 construct: Antibody-cytokine fusion (immunocytokine) made by Sortase A conjugation; also called fusion protein prepared from Ab0030 containing one hIL21 (isoform 1); DAR1
Description: as §1

| Binder | binding result [1] | Kd [2] [pM] | koff [2] [s⁻¹] | kon [2] [M⁻¹ s⁻¹] | EC50 (read off the curve) [3] [pM] | binding result [4] | EC50 (read off the curve) [5] [pM] | binding result (LC0030-1) |
| --- | --- | --- | --- | --- | --- | --- | --- | --- |
| B1 | no binding (tested: about 40 nM) | 608 | 0.0012 | 1.98e+06 | ~100 | no binding (tested: 200 nM) | ~80 | – |
| B2 | – | – | – | – | – | – | – | binds |
